According to patent US20220363763A1 (ABL BIO, published 2022):
Where a chain is given by its changes, count along the chain named.

T1: human LAG3 (construct not stated) (human, UniProt P18627 23-450, limits assumed)
T1 construct: also called human LAG3 protein; antigen
T1 sequence (looked up): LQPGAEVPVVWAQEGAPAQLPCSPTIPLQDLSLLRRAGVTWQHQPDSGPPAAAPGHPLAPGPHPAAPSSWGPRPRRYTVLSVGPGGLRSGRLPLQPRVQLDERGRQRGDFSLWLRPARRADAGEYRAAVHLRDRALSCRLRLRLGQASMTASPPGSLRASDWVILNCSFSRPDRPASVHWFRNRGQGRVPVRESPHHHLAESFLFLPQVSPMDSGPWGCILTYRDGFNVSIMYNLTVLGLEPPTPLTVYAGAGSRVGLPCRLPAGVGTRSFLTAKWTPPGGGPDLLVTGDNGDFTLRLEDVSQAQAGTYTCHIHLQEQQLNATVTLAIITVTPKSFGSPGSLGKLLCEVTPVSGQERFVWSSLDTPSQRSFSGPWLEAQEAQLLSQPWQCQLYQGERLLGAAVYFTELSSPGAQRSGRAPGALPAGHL

B1: Hu1210-1 (antibody, V domains shown)
VH: EVQLVESGGGLVKPGGSLRLSCAASGFTFSSYDMSWVRQAPGKGLEWVSTISDGGGYIYYSDSVKGRFTISRDNAKNSLYLQMNSLRAEDTAVYYCAREFGKRYALDYWGQGTTVTVSS
VL: DIQMTQSPSSLSASVGDRVTITCKASQDVTPAVAWYQQKPGKAPKLLIYSTSSRYTGVPSRFSGSGSGTDFTFTISSLQPEDIATYYCQQHYTTPLTFGQGTKLEIK
notes: Hu1210 VH.1 x Vk.1
B2: Hu1210-2 (antibody, V domains shown)
VH: B1 VH with S49A
VL: B1 VL
notes: Hu1210 VH.1a x Vk.1; human gamma 1 / kappa constant domains
B3: Hu1210-3 (antibody, V domains shown)
VH: B1 VH with G44S, S49A, Y95I
VL: B1 VL
notes: Hu1210 VH.1b x Vk.1; human gamma 1 / kappa constant domains
B4: Hu1210-4 (antibody, V domains shown)
VH: B1 VH with V37I
VL: B1 VL
notes: Hu1210 VH.2 x Vk.1; human gamma 1 / kappa constant domains
B5: Hu1210-5 (antibody, V domains shown)
VH: B1 VH with V37I, S49A
VL: B1 VL
notes: Hu1210 VH.2a x Vk.1; human gamma 1 / kappa constant domains
B6: Hu1210-14 (antibody, V domains shown)
VH: B1 VH with V5L, K13Q, G44S, S49A, A75S, S78T, Y95I
VL: B1 VL
notes: Hu1210 VH.3a x Vk.1; human gamma 1 / kappa constant domains
B7: Hu1210-16 (antibody, V domains shown)
VH: B1 VH with K13Q, S49A, A88D
VL: B1 VL
notes: Hu1210 VH.4a x Vk.1; human gamma 1 / kappa constant domains
B8: Hu1210-19 (antibody, V domains shown)
VH: B1 VH with V5L, K13Q, G44S, S49A, A75S, S78T, Y95I
VL: B1 VL with A43S
notes: Hu1210 VH.3a x Vk.1a; human gamma 1 / kappa constant domains
B9: Hu1210-17 (antibody, V domains shown)
VH: B1 VH with K13Q, G44S, S49A, A88D, Y95I
VL: B1 VL
notes: Hu1210 VH.4b x Vk.1; human gamma 1 / kappa constant domains
B10: Hu1210-31 (antibody, V domains shown)
VH: B1 VH with K13Q, S49A, Y95I
VL: DIQMTQSPSSLSASVGDRVTITCKASQDVTPAVAWYQQKPGKAPKLLIYSTSSRYTGVPSRFSGSGSGTDFTLTISSLQPEDFATYYCQQHYTTPLTFGQGTKLEIKR
notes: Hu1210 VH.5b x Vk.2; human gamma 1 / kappa constant domains
B11: Hu1210-36 (antibody, V domains shown)
VH: B1 VH with K13Q, A40T, G42E, G44S, S49A, S78N, Y95I, T114L
VL: B10 VL
notes: Hu1210 VH.5d (printed 'VH.Sd') x Vk.2; human gamma 1 / kappa constant domains
B12: 147xH12 (bispecific antibody, human IgG4 S228P, kappa)
heavy: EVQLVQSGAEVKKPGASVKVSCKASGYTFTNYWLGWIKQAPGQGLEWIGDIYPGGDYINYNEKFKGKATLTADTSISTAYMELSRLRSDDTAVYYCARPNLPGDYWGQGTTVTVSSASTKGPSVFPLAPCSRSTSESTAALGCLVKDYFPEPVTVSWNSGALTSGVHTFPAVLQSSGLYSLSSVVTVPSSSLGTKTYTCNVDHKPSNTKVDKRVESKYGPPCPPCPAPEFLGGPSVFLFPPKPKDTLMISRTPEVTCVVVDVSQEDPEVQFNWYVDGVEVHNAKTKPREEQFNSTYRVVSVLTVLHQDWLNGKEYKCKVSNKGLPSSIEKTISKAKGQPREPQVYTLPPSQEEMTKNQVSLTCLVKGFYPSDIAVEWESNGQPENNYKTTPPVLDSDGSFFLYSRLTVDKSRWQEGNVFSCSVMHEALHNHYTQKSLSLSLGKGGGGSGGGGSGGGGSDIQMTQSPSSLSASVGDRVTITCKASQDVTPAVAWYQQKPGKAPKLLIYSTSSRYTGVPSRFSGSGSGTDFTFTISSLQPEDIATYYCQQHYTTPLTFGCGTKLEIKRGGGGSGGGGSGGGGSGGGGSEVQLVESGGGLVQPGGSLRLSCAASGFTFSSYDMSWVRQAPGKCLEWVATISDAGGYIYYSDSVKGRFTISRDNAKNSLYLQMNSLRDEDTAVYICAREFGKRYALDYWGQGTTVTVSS
light: DIVMTQSPLSLPVTPGEPASISCRSSKSLLHSNGITYLYWYLQKPGQSPQLLIYQVSNLASGVPDRFSGSGSGTDFTLKISRVEAEDVGVYYCAQNLELPWTFGGGTKVEIKRTVAAPSVFIFPPSDEQLKSGTASVVCLLNNFYPREAKVQWKVDNALQSGNSQESVTEQDSKDSTYSLSSTLTLSKADYEKHKVYACEVTHQGLSSPVTKSFNRGEC
notes: also called A3L1
B13: Hu1210-13 (antibody, V domains shown)
VH: B1 VH with V5L, K13Q, A75S, S78T
VL: B1 VL
notes: Hu1210 VH.3 x Vk.1; human gamma 1 / kappa constant domains
B14: Hu1210-15 (antibody, V domains shown)
VH: B1 VH with K13Q, A88D
VL: B1 VL
notes: Hu1210 VH.4 x Vk.1; human gamma 1 / kappa constant domains
B15: Hu1210-18 (antibody, V domains shown)
VH: B1 VH with V5L, K13Q, A75S, S78T
VL: B1 VL with A43S
notes: Hu1210 VH.3 x Vk.1a; human gamma 1 / kappa constant domains
B16: Hu1210-20 (antibody, V domains shown)
VH: B1 VH with K13Q, A88D
VL: B1 VL with A43S
notes: Hu1210 VH.4 x Vk.1a; human gamma 1 / kappa constant domains
B17: Hu1210-21 (antibody, V domains shown)
VH: B1 VH with K13Q, S49A, A88D
VL: B1 VL with A43S
notes: Hu1210 VH.4a x Vk.1a; human gamma 1 / kappa constant domains

The binders below were run against T2, human PD-L1-Fc protein (human, UniProt Q9NZQ7 19-239) (assay: ELISA on coated human PD-L1-Fc; EC50 table has no unit, x axis Ab(nM)).
T2 construct: Coated on ELISA plates; also called huPD-L1; not shown: Fc part
T2 sequence (Q9NZQ7 19-239 limits assumed): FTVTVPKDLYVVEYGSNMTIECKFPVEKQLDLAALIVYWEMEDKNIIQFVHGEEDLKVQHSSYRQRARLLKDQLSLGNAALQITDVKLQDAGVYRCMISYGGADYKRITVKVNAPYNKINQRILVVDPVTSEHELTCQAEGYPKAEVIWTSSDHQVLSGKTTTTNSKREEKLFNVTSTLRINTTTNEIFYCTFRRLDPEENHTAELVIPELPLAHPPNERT
Description: (§1) To evaluate the antigen binding activity, the humanized antibodies were subjected to ELISA test. Briefly, microtiter plates were coated with human PD-L1-Fc protein at 0.1 μg/ml in PBS, 100 μl/well at 4° C. overnight, then blocked with 100 μl/well of 5% BSA. Five-fold dilutions of humanized antibodies starting from 10 μg/ml were added to each well and incubated for 1-2 hours at RT. The plates were washed with PBS/Tween and then incubate with […] antibody conjugated with Horse Radish Peroxidase (HRP) for 1 hour at RT. After washing, the plates were developed with TMB substrate and analyzed by spectrophotometer at OD 450-630 nm.
B1 gave an EC50 of 0.167 nM.
B2 gave an EC50 of 0.168 nM.
B3 showed an EC50 of 0.186 nM.
For B4, the EC50 was 0.184 nM.
Binder B5 has an EC50 of 0.193 nM.

These binders were tested against T3, human PD-L1 expressed on mammalian cells (human, UniProt Q9NZQ7 19-290) (assay: FACS receptor blocking on PDL1-CHOK1 cells, competitor Bio-PD1 (30 µg/ml)).
T3 construct: whole, on cells; also called PDL1-CHOK1 cells; PDL1-Raji cells
T3 sequence (Q9NZQ7 19-290): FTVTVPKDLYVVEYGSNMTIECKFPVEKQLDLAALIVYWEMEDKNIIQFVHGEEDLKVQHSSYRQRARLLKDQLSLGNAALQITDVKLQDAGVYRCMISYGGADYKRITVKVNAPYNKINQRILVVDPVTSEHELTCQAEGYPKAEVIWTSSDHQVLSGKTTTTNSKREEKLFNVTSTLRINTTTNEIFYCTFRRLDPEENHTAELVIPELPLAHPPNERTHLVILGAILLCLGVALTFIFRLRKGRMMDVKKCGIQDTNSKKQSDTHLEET
Description: To evaluate the blocking effect of humanized antibodies on human PD-L1 expressed on mammalian cells to bind to its receptor PD-1, the FACS-based receptor blocking assay was employed. Briefly, PDL1-CHOK1 cells were firstly incubated with 3-fold serious diluted HL1210-3 mouse mAb starting at 20 μg/ml at RT for 1 hour. After wash by FACS buffer (PBS with 2% FBS), the biotin-labeled huPD-1 were added to each well and incubated at RT for 1 hour. Then, the Streptavidin-PE was added to each well for 0.5 hour post twice wash with FACS buffer. The mean florescence intensity (MFI) of PE was evaluated by FACSAriaIII.
Binder B3 has a TOP of 84.3.
Binder B6 has a TOP of 79.6.
With B7 the TOP was 88.
With B8 the TOP was 87.5.
B9 was tested, and the TOP was 80.9.
In the case of B10, the TOP is reported as 92.9.
B11 was tested, and the TOP was 91.8.

What follows are binders tested against T1, human LAG3 (construct not stated) (assay: SPR Biacore, capture method).
Description: (§2) The binding affinities of bispecific antibodies PD-L1 and LAG3 of the bispecific antibodies (BsAb; 147xH12, 147H3807xB6 and B6x147H3807) prepared in Example 3 to PD-L1 protein and human LAG3 protein were tested with BIACORE™ using a capture method.
B12 was tested, and the Kd was 13.5 nM.

These binders were tested against T4, human PD-L1 (construct not stated) (human, UniProt Q9NZQ7 19-239, limits assumed) (assay: SPR Biacore, capture method).
T4 construct: also called B7-H1 (PD-L1); PD-L1 protein
T4 sequence (Q9NZQ7 19-239 limits assumed): as the sequence (Q9NZQ7 19-239 limits assumed) above
Description: as §2
Work on B12 yielded a Kd of 27.4 nM.

The binders below were run against T3, human PD-L1 expressed on mammalian cells (assay: flow cytometry (MFI) on PDL1-CHOK1 cells; EC50 table has no unit, x axis Antibodies(nM)).
Description: (§3) To evaluate the antigen binding property, the humanized antibodies were analyzed for its binding to mammalian expressed PD-L1 by FACS. Briefly, PDL1-CHOK1 cells were firstly incubated with 5-fold serious diluted humanized antibodies starting at 2 μg/ml at RT for 1 hour. After wash by FACS buffer (PBS with 2% FBS), the alexa 488-anti-human IgG antibody was added to each well and incubated at RT for 1 hour. The MFI of Alexa 488 was evaluated by FACSAriaIII.
With B13 the EC50 was 1.57 nM.
With B6 the EC50 was 1.46 nM.
B14 showed an EC50 of 2.04 nM.
B7 gave an EC50 of 1.41 nM.

Molecular target: T2, human PD-L1-Fc protein
Test: ELISA on coated human PD-L1-Fc; EC50 table has no unit, x axis Ab(nM)
Remark: another data set of the same source
Description: as §1
B15 gave an EC50 of 0.195 nM.
With B8 the EC50 was 0.137 nM.
In the case of B16, the EC50 is reported as 0.185 nM.
Binder B17 has an EC50 of 0.192 nM.
In the case of B9, the EC50 is reported as 0.208 nM.

The binders below were run against T4, human PD-L1 (construct not stated) (assay: BLI Octet Red 96, affinity ranking).
Text: To explore the binding kinetics of the humanized antibody, this example performed the affinity ranking by using Octet Red 96.
For B1, the Kd was 4.25 nM, the koff was 0.000302 s⁻¹ and the kon was 71000 M⁻¹ s⁻¹.
For B2, the Kd was 3.23 nM, the koff was 0.000251 s⁻¹ and the kon was 77800 M⁻¹ s⁻¹.
B3 was tested, and the Kd was 2.64 nM, the koff was 0.000228 s⁻¹ and the kon was 86200 M⁻¹ s⁻¹.
B4 was tested, and the Kd was 7.68 nM, the koff was 0.000546 s⁻¹ and the kon was 71200 M⁻¹ s⁻¹.
Binder B5 has a Kd of 4.83 nM, a koff of 0.000383 s⁻¹ and a kon of 79300 M⁻¹ s⁻¹.
Work on B13 yielded a Kd of 4.36 nM, a koff of 0.000366 s⁻¹ and a kon of 83800 M⁻¹ s⁻¹.
Work on B6 yielded a Kd of 2.34 nM, a koff of 0.000197 s⁻¹ and a kon of 84100 M⁻¹ s⁻¹.
B14 gave a Kd of 4.45 nM, a koff of 0.00035 s⁻¹ and a kon of 78700 M⁻¹ s⁻¹.
For B7, the Kd was 3.14 nM, the koff was 0.000264 s⁻¹ and the kon was 84100 M⁻¹ s⁻¹.
With B15 the Kd was 4.5 nM, the koff was 0.000357 s⁻¹ and the kon was 79200 M⁻¹ s⁻¹.
In the case of B8, the Kd is reported as 2.5 nM, the koff is reported as 0.000225 s⁻¹ and the kon is reported as 90300 M⁻¹ s⁻¹.
With B16 the Kd was 4.51 nM, the koff was 0.0004 s⁻¹ and the kon was 88700 M⁻¹ s⁻¹.
With B17 the Kd was 3.12 nM, the koff was 0.000293 s⁻¹ and the kon was 93900 M⁻¹ s⁻¹.
Binder B9 has a Kd of 2.2 nM, a koff of 0.00018 s⁻¹ and a kon of 81700 M⁻¹ s⁻¹.

Molecular target: T3, human PD-L1 expressed on mammalian cells
Test: flow cytometry (MFI) on PDL1-CHOK1 cells; EC50 table has no unit, x axis Antibodies(nM)
Remark: another data set of the same source
Description: as §3
Work on B15 yielded an EC50 of 1.8 nM.
Binder B8 has an EC50 of 1.01 nM.
For B16, the EC50 was 1.73 nM.
B17 gave an EC50 of 1.29 nM.
Binder B9 has an EC50 of 1.23 nM.

These binders were tested against T5, human PD-L1-his taq protein (human, UniProt Q9NZQ7 19-239, limits assumed) (assay: SPR Biacore T200, antibody captured, PD-L1-his injected).
T5 construct: also called recombinant PD-L1 protein; recombinant human PD-L1; not shown: his tag
T5 sequence (Q9NZQ7 19-239 limits assumed): as above
Description: The binding of the humanized antibodies to recombinant PD-L1 protein (human PD-L1-his taq) was tested by BIACORE™ using a capture method. The HL1210-3 mouse mAb were captured using anti-mouse Fc antibody coated on a CM5 chip. A series dilution of human PD-L1-his taq protein was injected over captured antibody for 3 mins at a flow rate of […]. The antigen was allowed to dissociate for 900 s. All the experiments were carried out on a Biacore T200.
B6 gave a Kd of 0.435 nM, a koff of 5.29e-05 s⁻¹ and a kon of 122000 M⁻¹ s⁻¹.
In the case of B7, the Kd is reported as 0.672 nM, the koff is reported as 6.7e-05 s⁻¹ and the kon is reported as 99800 M⁻¹ s⁻¹.
B9 gave a Kd of 0.193 nM, a koff of 2.13e-05 s⁻¹ and a kon of 110000 M⁻¹ s⁻¹.
For B10, the Kd was 0.786 nM, the koff was 0.000117 s⁻¹ and the kon was 149000 M⁻¹ s⁻¹.
In the case of B11, the Kd is reported as 0.538 nM, the koff is reported as 7.85e-05 s⁻¹ and the kon is reported as 146000 M⁻¹ s⁻¹.

Molecular target: T3, human PD-L1 expressed on mammalian cells
Test: flow cytometry (MFI) on PDL1-CHOK1 cells; EC50 table has no unit, x axis Antibodies(nM)
Remark: another data set of the same source
Description: as §3
Binder B1 has an EC50 of 2.31 nM.
With B2 the EC50 was 1.44 nM.
B3 showed an EC50 of 1.37 nM.
Work on B4 yielded an EC50 of 2.12 nM.
In the case of B5, the EC50 is reported as 1.43 nM.

Molecular target: T2, human PD-L1-Fc protein
Test: ELISA on coated human PD-L1-Fc; EC50 table has no unit, x axis Ab(nM)
Remark: another data set of the same source
Description: as §1
B13 showed an EC50 of 0.187 nM.
B6 gave an EC50 of 0.163 nM.
B14 showed an EC50 of 0.187 nM.
Work on B7 yielded an EC50 of 0.179 nM.
